Results from paper PMC2760139.

Key:
[1] = test system: DENV2 capsid protein C, mature WT (Dengue virus type 2 (cDNA clone GenBank U87411)); assay: filter binding
[2] = target: mature dengue virus type 2 capsid (C) protein with substitutions L50S-L54S, recombinant (dengue virus type 2) (UniProt P29990); assay: SEC-MALS
[3] = target: mature dengue virus type 2 capsid (C) protein, wild type, recombinant (dengue virus type 2) (UniProt P29990); assay: SEC-MALS

DENV 5'UTR RNA probe (viral 5' terminal region nt 1-160)
Kd [1]: 22 nM

mature dengue virus type 2 capsid (C) protein with substitutions L50S-L54S, recombinant (from UniProt P29990 1-100) (natural protein)
stoichiometry N [2]: 2

mature dengue virus type 2 capsid (C) protein, wild type, recombinant (from UniProt P29990) (natural protein)
stoichiometry N [3]: 2
